According to patent publication US20080207503A1, “Composition and Treatment Methods for Coronary Artery Disease” (priority 2005, published 2008):

Assay: Sphingomyelinase treatment of ICP (hydrolysis of SPM, TLC, cholesterol release)
Assay type: biochemical, human
Protocol: FIG. 7A show the effect of hydrolyzing SPM on ICP by sphingomyelinase on the ICP SPM to PC ratio. Following incubation of ICP in 0.25 M Tris buffer containing 20 mM MgCl2 with 50 units of bacterial sphingomyelinase for 6 hrs at 37° C., the reaction of sphingomyelinase was stopped by adding EDTA and a subsequent wash. A change in the SPM to PC ratio of insoluble ICP was examined by TLC. SPM to PC ratios of control ICP (top) and sphingomyelinase-treated ICP (bottom) were 1.69 and 0.49, respectively.
FIG. 7B show the effect of hydrolyzing SPM on ICP by sphingomyelinase on the release of ICP cholesterol by apo HDL or R-HDL. ICP sphingomyelinase treatment was as described in FIG. 7A. Release of cholesterol from control or sphingomyelinase-treated ICP was then measured after incubation of ICP at ICP FC to apo HDL ratio=1:2.5 or ICP FC to R-HDL PC ratio of 1:10.
Treatment of ICP with bacterial sphingomyelinase hydrolyzed 70% of ICP SPM. […] Rather, the release of ICP cholesterol into TBS, apo HDL, or R-HDL was reduced by prior sphingomyelinase treatment of ICP (FIG. 7B). As a model of ICP, artificial multilamellar SPM vesicles enriched with FC (SPM/FC ratio=1) or containing no FC (control SPM) were incubated with R-HDL. Then, PC and SPM content in residual insoluble multilamellar SPM vesicles and solubilized vesicles were determined by TLC (FIG. 7C). After incubation of FC-enriched multilamellar SPM vesicles (SPM/FC+, FIG. 7C, lane 1) with R-HDL (lane 4), insoluble multilamellar vesicles contained not only SPM but also PC (lane 2), while the soluble fraction contained only PC (lane 3). In contrast, following incubation of FC-free multilamellar SPM vesicles (SPM/FC−, lane 5) with R-HDL (lane 8), the residual insoluble multilamellar vesicles contained SPM and no PC (lane 6), and the upper soluble fraction contained both SPM and PC (lane 7).

B1: bacterial sphingomyelinase: Bacterial (Bacilus cereus) sphingomyelinase from Sigma (protein, UniProt P09599 28-333, looked up)
Sphingomyelinase C: DTSTDQNNTLKVMTHNVYMLSTNLYPNWGQSQRADLIGAADYIKNQDVVILNEVFDNSASDRLLGNLKKEYPNQTAVLGRSNGNEWDKTLGSYSSSTPEDGGVAIVSKWPIVEKIQYVFAKGCGPDNLSNKGFVYTKIKKNDRFVHVIGTHLQAEDSMCGKTSPASVRTNQLKEIQDFIKNKNIPNDEYVLFGGDMNVNKINAENNSDSEYASMFKTLHASIPSYTGHTATWDATTNSIAKYNFPDSPAEYLDYIIASKDHANPSFIENKVLQPKSPQWTVTSWLKKYTYDDYSDHYPVAATISMK
With B1 the “ICP SPM hydrolyzed” value (50 units bacterial sphingomyelinase, 6 hrs, 37° C.) was 70%, the “release of ICP cholesterol into TBS, apo HDL or R-HDL after prior sphingomyelinase treatment (in words)” value (FIG. 7B) was “reduced” and the “ICP SPM/PC ratio after sphingomyelinase treatment” value (control ICP 1.69 / 1.6, TLC) was 0.49.
